Results: patent publication US20160256527A1 (ONCOMED PHARMACEUTICALS, published 2016)

Target: T1, membrane bound single chain human GITRL trimer (human, UniProt Q9UNG2 29-177)
T1 construct: Expressed on the surface of transiently transfected HEK-293 cells (co-transfected with GFP); also called single chain hGITRL trimer
T1 sequence: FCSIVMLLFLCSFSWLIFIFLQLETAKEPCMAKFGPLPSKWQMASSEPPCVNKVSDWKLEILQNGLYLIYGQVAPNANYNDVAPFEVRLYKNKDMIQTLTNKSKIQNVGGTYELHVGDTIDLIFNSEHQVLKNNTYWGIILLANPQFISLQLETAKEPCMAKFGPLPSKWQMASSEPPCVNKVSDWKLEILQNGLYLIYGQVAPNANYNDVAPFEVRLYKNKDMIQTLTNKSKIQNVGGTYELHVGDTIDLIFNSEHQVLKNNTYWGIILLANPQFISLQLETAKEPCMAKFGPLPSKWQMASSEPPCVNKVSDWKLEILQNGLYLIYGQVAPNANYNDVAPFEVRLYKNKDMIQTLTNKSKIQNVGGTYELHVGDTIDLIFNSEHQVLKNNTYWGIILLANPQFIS
Experiment: flow cytometry, HEK-293 cells transfected with membrane bound single chain hGITRL trimer, PE anti-human Fc
Procedure: FIG. 2. FACS analysis of a membrane bound single chain GITRL trimer and soluble GITR. HEK293 cells were transiently transfected with an expression vector encoding a membrane bound single chain human GITRL trimer and a second expression vector encoding green fluorescent protein (GFP). Transfected cells were incubated with soluble human GITR-Fc fusion protein and analyzed by flow cytometry. Positive binding is determined by observation of cells within the inset box of the FACS plot.
To test the ability of a single chain hGITRL trimer to bind human GITR, binding studies were conducted. Human HEK-293 cells were transiently co-transfected with expression vectors encoding (1) the membrane bound single chain hGITRL trimer construct described above and (2) green fluorescent protein (GFP) as a transfection marker. Twenty-four hours post-transfection, the cells were incubated with hGITR-Fc or a control fusion protein. The cells were stained with a PE-conjugated anti-human Fc secondary antibody and analyzed by flow cytometry.

binding result: binds
B1: soluble human GITR-Fc fusion protein (Fc fusion, UniProt Q9Y5U5 26-162, looked up)
chain: QRPTGGPGCGPGRLLLGTGTDARCCRVHTTRCCRDYPGEECCSEWDCMCVQPEFHCGDPCCTTCRHHPCPPGQGVQSQGKFSFGFQCIDCASGTFSGGHEGHCKPWTDCTQFGFLTVFPGNKTHNAVCVPGSPPAEP
notes: also called hGITR-Fc; not shown: Fc region
